Assay results: patent US6764680

Legend:
[1] = target: rabbit antiserum against CTP37, rabbit # 4164; experiment: competition immunoassay, peptide competitor against rabbit antiserum 4164; legend: ++ = ED 50 < 250 ng
[2] = target: rabbit antiserum against COMBINED LOOP + CTP37, rabbit # 4173; experiment: competition immunoassay, peptide competitor against rabbit antiserum 4173; legend: ++ = ED 50 < 250 ng
[3] = target: rabbit antiserum against COMBINED LOOP + CTP37, rabbit # 4165; experiment: competition immunoassay, peptide competitor against rabbit antiserum 4165; legend: ++ = ED 50 < 250 ng
[4] = target: rabbit antiserum against COMBINED LOOP + CTP37, rabbit # 4166; experiment: competition immunoassay, peptide competitor against rabbit antiserum 4166; legend: ++ = ED 50 < 250 ng

- ED50 [1]: 10 to 250 ng
- ED50 [2]: 10 to 250 ng
- ED50 [3]: 10 to 250 ng
- ED50 [4]: 10 to 250 ng
B1: hCG-CTP21 (residues 130-150 of the beta subunit of hCG) (peptide)
peptide: CDDPRFQDSSSSKAPPPSLPS
